Literature values in PMC12071589.

Molecular target: TROP2 (Homo sapiens) (UniProt P09758)
Sequence (P09758 27-274): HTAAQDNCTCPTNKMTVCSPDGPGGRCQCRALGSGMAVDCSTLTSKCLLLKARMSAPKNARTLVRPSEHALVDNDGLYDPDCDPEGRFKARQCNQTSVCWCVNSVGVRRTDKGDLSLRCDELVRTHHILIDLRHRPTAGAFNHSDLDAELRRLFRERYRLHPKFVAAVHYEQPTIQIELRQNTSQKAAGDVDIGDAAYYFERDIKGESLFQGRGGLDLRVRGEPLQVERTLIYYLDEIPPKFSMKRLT

Kd: 0.26 nM
Substance: sacituzumab
